Results reported in the RNAGym collection of RNA variant scans (doi:10.7554/elife.80360).

B1: Hairpin Ribozyme (parent)
chain: GUCCUCUUUCACGUGCGCGUGAAAGAGAGAAGUGAACCAGAGAAACACACGUUGUGGUAUAUUACCUGGUA

Variants of: B1
Test: self-cleavage, relative activity (ratio to wild type); higher = more cleavage; co-transcriptional

Variant | self-cleavage
GUCCUCUUUCACGUGCGCGUGAAAGAGAGAAGUGAACCAGAGAAACACACGUUGUUGUAUAUUCCCUGGUA [G56U A64C] | 0.177
GUCCUCUUUCACGUGCGCGUGAAAGAGAGAAGUGAACCAGAGAAACACACGUUGGGGUAUAUUACCAGGUA [U55G U67A] | 0.219
GUCCUCUUUCACGUGCGCGUGAAAGAGAGAAGUGAACCAGAGAAACACACGUUGCGGUAUAUUACCCGGUA [U55C U67C] | 0.172
GUCCUCUUUCACGUGCGCGUGAAAGAGAGAAGUGAACCAGAGAAACACACGUUGUCGUAUAUUUCCUGGUA [G56C A64U] | 0.0562
GUCCUCUUUCACGUGCGCGUGAAAGAGAGAAGUGAACCAGAGAAACACACGUUGGGGUAUAUUACCUGGUC [U55G A71C] | 0.708
GUCCUCUUUCACGUGCGCGUGAAAGAGAGAAGUGAACCAGAGAAACACACGUUGGGGUAUAUAACCUGGUA [U55G U63A] | 0.346
GUCCUCUUUCACGUGCGCGUGAAAGAGAGAAGUGAACCAGAGAAACACACGUUGGGGUAUUUUACCUGGUA [U55G A61U] | 0.0838
GUCCUCUUUCACGUGCGCGUGAAAGAGAGAAGUGAACCAGAGAAACACACGUUGGGGUAUCUUACCUGGUA [U55G A61C] | 0.21
GUCCUCUUUCACGUGCGCGUGAAAGAGAGAAGUGAACCAGAGAAACACACGUUGUUGUAUAAUACCUGGUA [G56U U62A] | 0.186
GUCCUCUUUCACGUGCGCGUGAAAGAGAGAAGUGAACCAGAGAAACACACGUUGUUGUAUACUACCUGGUA [G56U U62C] | 0.122
GUCCUCUUUCACGUGCGCGUGAAAGAGAGAAGUGAACCAGAGAAACACACGUUGGGGGAUAUUACCUGGUA [U55G U58G] | 0.206
GUCCUCUUUCACGUGCGCGUGAAAGAGAGAAGUGAACCAGAGAAACACACGUUGGGGUAUAUUACAUGGUA [U55G C66A] | 0.201
GUCCUCUUUCACGUGCGCGUGAAAGAGAGAAGUGAACCAGAGAAACACACGUUGGGGUAUAUUACCUGGCA [U55G U70C] | 0.264
GUCCUCUUUCACGUGCGCGUGAAAGAGAGAAGUGAACCAGAGAAACACACGUUGUAGUAUAUUACCUGUUA [G56A G69U] | 0.258
GUCCUCUUUCACGUGCGCGUGAAAGAGAGAAGUGAACCAGAGAAACACACGUUGUCGUAUAUUACCUAGUA [G56C G68A] | 0.153
GUCCUCUUUCACGUGCGCGUGAAAGAGAGAAGUGAACCAGAGAAACACACGUUGUCGUUUAUUACCUGGUA [G56C A59U] | 0.173
GUCCUCUUUCACGUGCGCGUGAAAGAGAGAAGUGAACCAGAGAAACACACGUUGGGGUAUAUUACCUAGUA [U55G G68A] | 0.237
GUCCUCUUUCACGUGCGCGUGAAAGAGAGAAGUGAACCAGAGAAACACACGUUGGGGUAUAUUACCUCGUA [U55G G68C] | 0.251
GUCCUCUUUCACGUGCGCGUGAAAGAGAGAAGUGAACCAGAGAAACACACGUUGUAGUAUAUUACCCGGUA [G56A U67C] | 0.129

Variant | self-cleavage
GUCCUCUUUCACGUGCGCGUGAAAGAGAGAAGUGAACCAGAGAAACACACGUUGUAGUAUAUUACCGGGUA [G56A U67G] | 0.104
GUCCUCUUUCACGUGCGCGUGAAAGAGAGAAGUGAACCAGAGAAACACACGUUGUAGUAUACUACCUGGUA [G56A U62C] | 0.141
GUCCUCUUUCACGUGCGCGUGAAAGAGAGAAGUGAACCAGAGAAACACACGUUGUAGUAUAAUACCUGGUA [G56A U62A] | 0.182
GUCCUCUUUCACGUGCGCGUGAAAGAGAGAAGUGAACCAGAGAAACACACGUUGUCGUAUGUUACCUGGUA [G56C A61G] | 0.155
GUCCUCUUUCACGUGCGCGUGAAAGAGAGAAGUGAACCAGAGAAACACACGUUGUAGUAUAUUAACUGGUA [G56A C65A] | 0.097
GUCCUCUUUCACGUGCGCGUGAAAGAGAGAAGUGAACCAGAGAAACACACGUUGUAGUAUAUUAGCUGGUA [G56A C65G] | 0.214
GUCCUCUUUCACGUGCGCGUGAAAGAGAGAAGUGAACCAGAGAAACACACGUUGUUGUAUAUUACAUGGUA [G56U C66A] | 0.208
GUCCUCUUUCACGUGCGCGUGAAAGAGAGAAGUGAACCAGAGAAACACACGUUGUAGUAUAUUACCUGGUC [G56A A71C] | 0.404
GUCCUCUUUCACGUGCGCGUGAAAGAGAGAAGUGAACCAGAGAAACACACGUUGUUGUAUAUUACCUGGUC [G56U A71C] | 0.454
GUCCUCUUUCACGUGCGCGUGAAAGAGAGAAGUGAACCAGAGAAACACACGUUGUUGUAUAUUACCUGGUU [G56U A71U] | 0.177
GUCCUCUUUCACGUGCGCGUGAAAGAGAGAAGUGAACCAGAGAAACACACGUUGGGGUAUACUACCUGGUA [U55G U62C] | 0.161
GUCCUCUUUCACGUGCGCGUGAAAGAGAGAAGUGAACCAGAGAAACACACGUUGGGGUAUAAUACCUGGUA [U55G U62A] | 0.104
GUCCUCUUUCACGUGCGCGUGAAAGAGAGAAGUGAACCAGAGAAACACACGUUGUAGGAUAUUACCUGGUA [G56A U58G] | 0.274
GUCCUCUUUCACGUGCGCGUGAAAGAGAGAAGUGAACCAGAGAAACACACGUUGUAGAAUAUUACCUGGUA [G56A U58A] | 0.0823
GUCCUCUUUCACGUGCGCGUGAAAGAGAGAAGUGAACCAGAGAAACACACGUUGUAGCAUAUUACCUGGUA [G56A U58C] | 0.162
GUCCUCUUUCACGUGCGCGUGAAAGAGAGAAGUGAACCAGAGAAACACACGUUGGGGUGUAUUACCUGGUA [U55G A59G] | 0.139
GUCCUCUUUCACGUGCGCGUGAAAGAGAGAAGUGAACCAGAGAAACACACGUUGGGGUCUAUUACCUGGUA [U55G A59C] | 0.156
GUCCUCUUUCACGUGCGCGUGAAAGAGAGAAGUGAACCAGAGAAACACACGUUGGGGUAUAUUACCUGAUA [U55G G69A] | 0.178
GUCCUCUUUCACGUGCGCGUGAAAGAGAGAAGUGAACCAGAGAAACACACGUUGUUGUGUAUUACCUGGUA [G56U A59G] | 0.238
